# Patent US9889184B2 (priority 2008, dated 2018)
# Assays:
# Format in all cases: cell-based
# [1] = test system: Fusarium graminearum; conditions: concentrations up to 18.5 uM in the absence of NaD1
# [2] = test system: Fusarium oxysporum f. sp. vasinfectum (Fov); test: Growth of Fov with NaD1 and proteinase inhibitors (Example 6); conditions: 40 h, FIG. 6
# Method: The inhibitory effects of defensin (NaD1) and proteinase inhibitors on the growth of Fusarium oxysporum f. sp. vasinfectum (Fov) (Australian isolate VCG01111 isolated from cotton and provided by Farming Systems Institute, DPI, Queensland, Australia) were measured essentially as described by Broekaert et al, supra 1990. Spores were isolated from sporulating cultures growing in ½ strength potato dextrose broth (PDB). The Fov culture was grown in ½ PDB for 1-2 weeks at room temperature, before spores were separated from hyphal matter by filtration through sterile tissue paper. The concentration of spores in the filtrate was measured using a hemocytometer. NaD1 and the proteinase inhibitors were prepared as described in Example 4. The conditions used for the fungal growth assay were the same as those described in Example 4. After 40h at 25° C. fungal growth was assessed by measuring optical density at 595 nm (A595).
# [3] = test system: Colletotrichum graminicola; conditions: C. graminicola, 40 h, FIG. 7
# [4] = test system: Fusarium graminearum; conditions: F. graminearum
molecule,measurement,setting,value
"NaCys2: cystatin from Nicotiana alata, bacterially expressed (SEQ ID NO:4) (protein, Nicotiana alata (NaCys2)) MANLGGIREAGGSENSLEINDLARFAVDGHNKKQNALLEFRKVVNVKEQVVAGTMYYITLEATEGGKKKAYEAKVWVKPWQNFKQLEDFKLIGDAASA",effect on hyphal growth,[1],no effect on hyphal growth
same,synergy with NaD1 on growth inhibition,[2],"Less, but significant synergy"
same,synergy with NaD1 on growth inhibition,[3],synergistic effect
same,synergy with the petunia defensin PhD1A on growth inhibition,[4],synergistic effect
same,synergy with the tomato defensin Tomdef2 on growth inhibition,[4],synergistic effect
